B1: Phospholipase D alpha 1 (Arabidopsis thaliana (Mouse-ear cress)), Q38882 (parent)
chain: MAQHLLHGTLHATIYEVDALHGGGVRQGFLGKILANVEETIGVGKGETQLYATIDLQKARVGRTRKIKNEPKNPKWYESFHIYCAHLASDIIFTVKDDNPIGATLIGRAYIPVDQVINGEEVDQWVEILDNDRNPIQGGSKIHVKLQYFHVEEDRNWNMGIKSAKFPGVPYTFFSQRQGCKVSLYQDAHIPDNFVPRIPLAGGKNYEPQRCWEDIFDAISNAKHLIYITGWSVYAEIALVRDSRRPKPGGDVTIGELLKKKASEGVRVLLLVWDDRTSVDVLKKDGLMATHDEETENFFRGSDVHCILCPRNPDDGGSIVQSLQISTMFTHHQKIVVVDSEMPSRGGSEMRRIVSFVGGIDLCDGRYDTPFHSLFRTLDTVHHDDFHQPNFTGAAITKGGPREPWHDIHSRLEGPIAWDVMYNFEQRWSKQGGKDILVKLRDLSDIIITPSPVMFQEDHDVWNVQLFRSIDGGAAAGFPESPEAAAEAGLVSGKDNIIDRSIQDAYIHAIRRAKDFIYVENQYFLGSSFAWAADGITPEDINALHLIPKELSLKIVSKIEKGEKFRVYVVVPMWPEGLPESGSVQAILDWQRRTMEMMYKDVIQALRAQGLEEDPRNYLTFFCLGNREVKKDGEYEPAEKPDPDTDYMRAQEARRFMIYVHTKMMIVDDEYIIIGSANINQRSMDGARDSEIAMGGYQPHHLSHRQPARGQIHGFRMSLWYEHLGMLDETFLDPSSLECIEKVNRISDKYWDFYSSESLEHDLPGHLLRYPIGVASEGDITELPGFEFFPDTKARILGTKSDYLPPILTT

The variants in the assay derive from B1. The note with it: with xlg3_arath XLG3, Q9C516.
For the variant F565A, the “effect of a mutation on the interaction” value is “decreasing interaction”.
For K564A the value was “decreasing interaction”.
For E563A the value was “decreasing interaction”.

Source of the values: IntAct's records for PubMed 16614222.
